Reference: article doi:10.1101/2022.08.09.502851, “Dystroglycan N-terminal domain enables LARGE1 to extend matriglycan on α-dystroglycan and prevents muscular dystrophy” (bioRxiv, 2022)
Positions count from the first letter of the chain named. Numbers in names are those of the source. One block for each binder: values may come before it.

Target: T1, laminin-111 (mouse Engelbreth-Holm-Swarm (EHS) laminin) (mouse, UniProt P19137 25-3083; P02469 22-1786; P02468 34-1607)
T1 construct: laminin subunit alpha-1 of laminin-111, mouse EHS laminin; laminin subunit beta-1 of laminin-111, mouse EHS laminin; laminin subunit gamma-1 of laminin-111, mouse EHS laminin; source: bought: ThermoFisher, 23017015 (mouse Engelbreth-Holm-Swarm laminin); copies: + +
Test: ELISA; solid-phase assay: WGA eluates of skeletal muscle diluted 1:50 in TBS coated on polystyrene microplates overnight at 4 °C; Laminin-111 in laminin-binding buffer; bound laminin detected with L9393 and HRP anti-rabbit IgG, absorbance at 490 nm; three replicates for each group
Settings: one partner purified

Kd: 0.966 ± 0.069 nM
B1: α-dystroglycan (α-DG), wild type, with full-length matriglycan, from control (WT littermate or C57BL/6J) mouse skeletal muscle (receptor, mouse (endogenous in skeletal muscle), UniProt Q62165 28-651, looked up)
chain: HWPSEPSEAVRDWKNQLEASMHSVLSDFQEAVPTVVGIPDGTAVVGRSFRVSIPTDLIASSGEIIKVSAAGKEALPSWLHWDPHSHILEGLPLDTDKGVHYISVSAARLGANGSHVPQTSSVFSIEVYPEDHNEPQSVRAASSDPGEVVPSACAADEPVTVLTVILDADLTKMTPKQRIDLLNRMQSFSEVELHNMKLVPVVNNRLFDMSAFMAGPGNAKKVVENGALLSWKLGCSLNQNSVPDIRGVETPAREGAMSAQLGYPVVGWHIANKKPTLPKRLRRQIHATPTPVTAIGPPTTAIQEPPSRIVPTPTSPAIAPPTETMAPPVRDPVPGKPTVTIRTRGAIIQTPTLGPIQPTRVSEAGTTVPGQIRPTLTIPGYVEPTAVITPPTTTTKKPRVSTPKPATPSTDSSTTTTRRPTKKPRTPRPVPRVTTKAPITRLETASPPTRIRTTTSGVPRGGEPNQRPELKNHIDRVDAWVGTYFEVKIPSDTFYDNEDTTTDKLKLTLKLREQQLVGEKSWVQFNSNSQLMYGLPDSSHVGKHEYFMHATDKGGLSAVDAFEIHVHKRPQGDKAPARFKARLAGDPAPVVNDIHKKIALVKKLAFAFGDRNCSSITLQNITRG
modifications: matriglycan [-GlcA-β1,3-Xyl-α1,3-]n, full length (α-DG of ~150-250 kDa); extensive O-glycosylation
notes: α-dystroglycan, the α-subunit cut from the DG pre-proprotein (Dag1), mouse; also called α-DG (WT)

Kd: 1.9 ± 0.199 nM
B2: α-dystroglycan with the knock-in mutation T190M, from Dag1 T190M mouse skeletal muscle (receptor, UniProt Q62165 28-651, looked up)
chain: B1 chain with T163M
modifications: matriglycan shorter than wild type (α-DG laminin-binding band at ~100-150 kDa)
notes: α-dystroglycan, the α-subunit cut from the DG pre-proprotein (Dag1), mouse, knock-in T190M (Hara et al., 2011); also called α-DGN mutant (T190M)
